Target: the molecule itself
Assay: native MS

B1: Kir3.2, full-length, human (natural protein, UniProt P48051 1-423, looked up)
chain: MAKLTESMTNVLEGDSMDQDVESPVAIHQPKLPKQARDDLPRHISRDRTKRKIQRYVRKDGKCNVHHGNVRETYRYLTDIFTTLVDLKWRFNLLIFVMVYTVTWLFFGMIWWLIAYIRGDMDHIEDPSWTPCVTNLNGFVSAFLFSIETETTIGYGYRVITDKCPEGIILLLIQSVLGSIVNAFMVGCMFVKISQPKKRAETLVFSTHAVISMRDGKLCLMFRVGDLRNSHIVEASIRAKLIKSKQTSEGEFIPLNQTDINVGYYTGDDRLFLVSPLIISHEINQQSPFWEISKAQLPKEELEIVVILEGMVEATGMTCQARSSYITSEILWGYRFTPVLTLEDGFYEVDYNSFHETYETSTPSLSAKELAELASRAELPLSWSVSSKLNQHAELETEEEEKNLEEQTERNGDVANLENESKV
  stoichiometry N: 4

From paper PMC9569133 (Biochemistry, 2021)
